Laboratory results taken from PMC5241874.

B1: αγ heterodimer of human NAD-IDH (IDH3) (Homo sapiens; P51553:R136A) (protein)
chain 1: TGGVQTVTLIPGDGIGPEISAAVMKIFDAAKAPIQWEERNVTAIQGPGGKWMIPSEAKESMDKNKMGLKGPLKTPIAAGHPSMNLLLRKTFDLYANVRPCVSIEGYKTPYTDVNIVTIRENTEGEYSGIEHVIVDGVVQSIKLITEGASKRIAEFAFEYARNNHRSNVTAVHKANIMRMSDGLFLQKCREVAESCKDIKFNEMYLDTVCLNMVQDPSQFDVLVMPNLYGDILSDLCAGLIGGLGVTPSGNIGANGVAIFESVHGTAPDIAGKDMANPTALLLSAVMMLRHMGLFDHAARIEAACFATIKDGKSLTKDLGGNAKCSDFTEEICRRVKDLD
chain 2: FSEQTIPPSAKYGGRHTVTMIPGDGIGPELMLHVKSVFRHACVPVDFEEVHVSSNADEEDIRNAIMAIRRNRVALKGNIETNHNLPPSHKSRNNILATSLDLYANVIHCKSLPGVVTRHKDIDILIVRENTEGEYSSLEHESVAGVVESLKIITKAKSLRIAEYAFKLAQESGRKKVTAVHKANIMKLGDGLFLQCCREVAARYPQITFENMIVDNTTMQLVSRPQQFDVMVMPNLYGNIVNNVCAGLVGGPGLVAGANYGHVYAVFETATRNTGKSIANKNIANPTATLLASCMMLDHLKLHSYATSIRKAVLASMDNENMHTPDIGGQGTTSEAIQDVIRHIRVINGRAVEA
notes: alpha and gamma co-expressed in E. coli BL21(DE3) from pQlinkN; gamma C-terminal TEV-His6, His6 cleaved by TEV; 80 kDa heterodimer (dimer of heterodimers at high concentration)
B2: αγ heterodimer of human NAD-IDH (IDH3) (Homo sapiens; P51553:Y276F) (protein)
chain 1: TGGVQTVTLIPGDGIGPEISAAVMKIFDAAKAPIQWEERNVTAIQGPGGKWMIPSEAKESMDKNKMGLKGPLKTPIAAGHPSMNLLLRKTFDLYANVRPCVSIEGYKTPYTDVNIVTIRENTEGEYSGIEHVIVDGVVQSIKLITEGASKRIAEFAFEYARNNHRSNVTAVHKANIMRMSDGLFLQKCREVAESCKDIKFNEMYLDTVCLNMVQDPSQFDVLVMPNLYGDILSDLCAGLIGGLGVTPSGNIGANGVAIFESVHGTAPDIAGKDMANPTALLLSAVMMLRHMGLFDHAARIEAACFATIKDGKSLTKDLGGNAKCSDFTEEICRRVKDLD
chain 2: FSEQTIPPSAKYGGRHTVTMIPGDGIGPELMLHVKSVFRHACVPVDFEEVHVSSNADEEDIRNAIMAIRRNRVALKGNIETNHNLPPSHKSRNNILRTSLDLYANVIHCKSLPGVVTRHKDIDILIVRENTEGEYSSLEHESVAGVVESLKIITKAKSLRIAEYAFKLAQESGRKKVTAVHKANIMKLGDGLFLQCCREVAARYPQITFENMIVDNTTMQLVSRPQQFDVMVMPNLFGNIVNNVCAGLVGGPGLVAGANYGHVYAVFETATRNTGKSIANKNIANPTATLLASCMMLDHLKLHSYATSIRKAVLASMDNENMHTPDIGGQGTTSEAIQDVIRHIRVINGRAVEA
notes: as for B1
B3: αγ heterodimer of human NAD-IDH (IDH3) (Homo sapiens; P51553:R311A) (protein)
chain 1: TGGVQTVTLIPGDGIGPEISAAVMKIFDAAKAPIQWEERNVTAIQGPGGKWMIPSEAKESMDKNKMGLKGPLKTPIAAGHPSMNLLLRKTFDLYANVRPCVSIEGYKTPYTDVNIVTIRENTEGEYSGIEHVIVDGVVQSIKLITEGASKRIAEFAFEYARNNHRSNVTAVHKANIMRMSDGLFLQKCREVAESCKDIKFNEMYLDTVCLNMVQDPSQFDVLVMPNLYGDILSDLCAGLIGGLGVTPSGNIGANGVAIFESVHGTAPDIAGKDMANPTALLLSAVMMLRHMGLFDHAARIEAACFATIKDGKSLTKDLGGNAKCSDFTEEICRRVKDLD
chain 2: FSEQTIPPSAKYGGRHTVTMIPGDGIGPELMLHVKSVFRHACVPVDFEEVHVSSNADEEDIRNAIMAIRRNRVALKGNIETNHNLPPSHKSRNNILRTSLDLYANVIHCKSLPGVVTRHKDIDILIVRENTEGEYSSLEHESVAGVVESLKIITKAKSLRIAEYAFKLAQESGRKKVTAVHKANIMKLGDGLFLQCCREVAARYPQITFENMIVDNTTMQLVSRPQQFDVMVMPNLYGNIVNNVCAGLVGGPGLVAGANYGHVYAVFETATANTGKSIANKNIANPTATLLASCMMLDHLKLHSYATSIRKAVLASMDNENMHTPDIGGQGTTSEAIQDVIRHIRVINGRAVEA
notes: as for B1
B4: αγ heterodimer of human NAD-IDH (IDH3) (Homo sapiens; P50213:Y255F) (protein)
chain 1: TGGVQTVTLIPGDGIGPEISAAVMKIFDAAKAPIQWEERNVTAIQGPGGKWMIPSEAKESMDKNKMGLKGPLKTPIAAGHPSMNLLLRKTFDLYANVRPCVSIEGYKTPYTDVNIVTIRENTEGEYSGIEHVIVDGVVQSIKLITEGASKRIAEFAFEYARNNHRSNVTAVHKANIMRMSDGLFLQKCREVAESCKDIKFNEMYLDTVCLNMVQDPSQFDVLVMPNLFGDILSDLCAGLIGGLGVTPSGNIGANGVAIFESVHGTAPDIAGKDMANPTALLLSAVMMLRHMGLFDHAARIEAACFATIKDGKSLTKDLGGNAKCSDFTEEICRRVKDLD
chain 2: FSEQTIPPSAKYGGRHTVTMIPGDGIGPELMLHVKSVFRHACVPVDFEEVHVSSNADEEDIRNAIMAIRRNRVALKGNIETNHNLPPSHKSRNNILRTSLDLYANVIHCKSLPGVVTRHKDIDILIVRENTEGEYSSLEHESVAGVVESLKIITKAKSLRIAEYAFKLAQESGRKKVTAVHKANIMKLGDGLFLQCCREVAARYPQITFENMIVDNTTMQLVSRPQQFDVMVMPNLYGNIVNNVCAGLVGGPGLVAGANYGHVYAVFETATRNTGKSIANKNIANPTATLLASCMMLDHLKLHSYATSIRKAVLASMDNENMHTPDIGGQGTTSEAIQDVIRHIRVINGRAVEA
notes: as for B1
B5: αγ heterodimer of human NAD-IDH (IDH3) (Homo sapiens; P51553:D229A) (protein)
chain 1: TGGVQTVTLIPGDGIGPEISAAVMKIFDAAKAPIQWEERNVTAIQGPGGKWMIPSEAKESMDKNKMGLKGPLKTPIAAGHPSMNLLLRKTFDLYANVRPCVSIEGYKTPYTDVNIVTIRENTEGEYSGIEHVIVDGVVQSIKLITEGASKRIAEFAFEYARNNHRSNVTAVHKANIMRMSDGLFLQKCREVAESCKDIKFNEMYLDTVCLNMVQDPSQFDVLVMPNLYGDILSDLCAGLIGGLGVTPSGNIGANGVAIFESVHGTAPDIAGKDMANPTALLLSAVMMLRHMGLFDHAARIEAACFATIKDGKSLTKDLGGNAKCSDFTEEICRRVKDLD
chain 2: FSEQTIPPSAKYGGRHTVTMIPGDGIGPELMLHVKSVFRHACVPVDFEEVHVSSNADEEDIRNAIMAIRRNRVALKGNIETNHNLPPSHKSRNNILRTSLDLYANVIHCKSLPGVVTRHKDIDILIVRENTEGEYSSLEHESVAGVVESLKIITKAKSLRIAEYAFKLAQESGRKKVTAVHKANIMKLGAGLFLQCCREVAARYPQITFENMIVDNTTMQLVSRPQQFDVMVMPNLYGNIVNNVCAGLVGGPGLVAGANYGHVYAVFETATRNTGKSIANKNIANPTATLLASCMMLDHLKLHSYATSIRKAVLASMDNENMHTPDIGGQGTTSEAIQDVIRHIRVINGRAVEA
notes: as for B1
B6: αγ heterodimer of human NAD-IDH (IDH3) (Homo sapiens; P51553:K190A) (protein)
chain 1: TGGVQTVTLIPGDGIGPEISAAVMKIFDAAKAPIQWEERNVTAIQGPGGKWMIPSEAKESMDKNKMGLKGPLKTPIAAGHPSMNLLLRKTFDLYANVRPCVSIEGYKTPYTDVNIVTIRENTEGEYSGIEHVIVDGVVQSIKLITEGASKRIAEFAFEYARNNHRSNVTAVHKANIMRMSDGLFLQKCREVAESCKDIKFNEMYLDTVCLNMVQDPSQFDVLVMPNLYGDILSDLCAGLIGGLGVTPSGNIGANGVAIFESVHGTAPDIAGKDMANPTALLLSAVMMLRHMGLFDHAARIEAACFATIKDGKSLTKDLGGNAKCSDFTEEICRRVKDLD
chain 2: FSEQTIPPSAKYGGRHTVTMIPGDGIGPELMLHVKSVFRHACVPVDFEEVHVSSNADEEDIRNAIMAIRRNRVALKGNIETNHNLPPSHKSRNNILRTSLDLYANVIHCKSLPGVVTRHKDIDILIVRENTEGEYSSLEHESVAGVVESLAIITKAKSLRIAEYAFKLAQESGRKKVTAVHKANIMKLGDGLFLQCCREVAARYPQITFENMIVDNTTMQLVSRPQQFDVMVMPNLYGNIVNNVCAGLVGGPGLVAGANYGHVYAVFETATRNTGKSIANKNIANPTATLLASCMMLDHLKLHSYATSIRKAVLASMDNENMHTPDIGGQGTTSEAIQDVIRHIRVINGRAVEA
notes: as for B1
B7: αγ heterodimer of human NAD-IDH (IDH3) (Homo sapiens; P51553:R167A) (protein)
chain 1: TGGVQTVTLIPGDGIGPEISAAVMKIFDAAKAPIQWEERNVTAIQGPGGKWMIPSEAKESMDKNKMGLKGPLKTPIAAGHPSMNLLLRKTFDLYANVRPCVSIEGYKTPYTDVNIVTIRENTEGEYSGIEHVIVDGVVQSIKLITEGASKRIAEFAFEYARNNHRSNVTAVHKANIMRMSDGLFLQKCREVAESCKDIKFNEMYLDTVCLNMVQDPSQFDVLVMPNLYGDILSDLCAGLIGGLGVTPSGNIGANGVAIFESVHGTAPDIAGKDMANPTALLLSAVMMLRHMGLFDHAARIEAACFATIKDGKSLTKDLGGNAKCSDFTEEICRRVKDLD
chain 2: FSEQTIPPSAKYGGRHTVTMIPGDGIGPELMLHVKSVFRHACVPVDFEEVHVSSNADEEDIRNAIMAIRRNRVALKGNIETNHNLPPSHKSRNNILRTSLDLYANVIHCKSLPGVVTRHKDIDILIVAENTEGEYSSLEHESVAGVVESLKIITKAKSLRIAEYAFKLAQESGRKKVTAVHKANIMKLGDGLFLQCCREVAARYPQITFENMIVDNTTMQLVSRPQQFDVMVMPNLYGNIVNNVCAGLVGGPGLVAGANYGHVYAVFETATRNTGKSIANKNIANPTATLLASCMMLDHLKLHSYATSIRKAVLASMDNENMHTPDIGGQGTTSEAIQDVIRHIRVINGRAVEA
notes: as for B1
B8: αγ heterodimer of human NAD-IDH (IDH3) (Homo sapiens; P51553:Y174F) (protein)
chain 1: TGGVQTVTLIPGDGIGPEISAAVMKIFDAAKAPIQWEERNVTAIQGPGGKWMIPSEAKESMDKNKMGLKGPLKTPIAAGHPSMNLLLRKTFDLYANVRPCVSIEGYKTPYTDVNIVTIRENTEGEYSGIEHVIVDGVVQSIKLITEGASKRIAEFAFEYARNNHRSNVTAVHKANIMRMSDGLFLQKCREVAESCKDIKFNEMYLDTVCLNMVQDPSQFDVLVMPNLYGDILSDLCAGLIGGLGVTPSGNIGANGVAIFESVHGTAPDIAGKDMANPTALLLSAVMMLRHMGLFDHAARIEAACFATIKDGKSLTKDLGGNAKCSDFTEEICRRVKDLD
chain 2: FSEQTIPPSAKYGGRHTVTMIPGDGIGPELMLHVKSVFRHACVPVDFEEVHVSSNADEEDIRNAIMAIRRNRVALKGNIETNHNLPPSHKSRNNILRTSLDLYANVIHCKSLPGVVTRHKDIDILIVRENTEGEFSSLEHESVAGVVESLKIITKAKSLRIAEYAFKLAQESGRKKVTAVHKANIMKLGDGLFLQCCREVAARYPQITFENMIVDNTTMQLVSRPQQFDVMVMPNLYGNIVNNVCAGLVGGPGLVAGANYGHVYAVFETATRNTGKSIANKNIANPTATLLASCMMLDHLKLHSYATSIRKAVLASMDNENMHTPDIGGQGTTSEAIQDVIRHIRVINGRAVEA
notes: as for B1

What follows are proteins tested on O=C(O)CC(C(=O)O)C(O)C(=O)O (assay: purified protein). Conditions: no activators, 2 mM Mn2+, 3.2 mM NAD, 33 mM Tris-acetate pH 7.4, 25 °C, Hill 2.0, racemic DL-ICT varied, Hill 1.0.
Type: biochemical, Homo sapiens
B1 was tested, and the K0.5 was 4.51 ± 0.43 mM and the kcat/Km was 330 ± 10 M⁻¹ s⁻¹.
In the case of B2, the K0.5 is reported as 14.8 ± 0.5 mM and the kcat/Km is reported as 250 ± 10 M⁻¹ s⁻¹.
For B3, the K0.5 was 19.3 ± 1.0 mM and the kcat/Km was 210 ± 10 M⁻¹ s⁻¹.

Same assay, conditions: no activators, 2 mM Mn2+, 3.2 mM NAD, 33 mM Tris-acetate pH 7.4, 25 °C, Hill 2.0, racemic DL-ICT varied, Hill 1.1
With B4 the K0.5 was 14.5 ± 0.9 mM and the kcat/Km was 46 ± 2 M⁻¹ s⁻¹.
B5 gave a K0.5 of 10.2 ± 0.6 mM and a kcat/Km of 730 ± 40 M⁻¹ s⁻¹.
B6 showed a K0.5 of 8.12 ± 0.16 mM and a kcat/Km of 90 ± 2 M⁻¹ s⁻¹.
With B7 the K0.5 was 8.57 ± 0.42 mM and the kcat/Km was 260 ± 10 M⁻¹ s⁻¹.
B8 gave a K0.5 of 8.80 ± 0.54 mM and a kcat/Km of 270 ± 10 M⁻¹ s⁻¹.
